Data taken from patent publication US20160355605A1 (published 2016).

Key:
[1] = molecular target: T1, Muc1 mucin bearing the CA6 sialoglycotope (DS6 antigen), as expressed by CA6-positive human tumour cell lines (human, UniProt P15941 24-1255, CA6 epitope: sialic acid-dependent glycotope on sialylated O-linked carbohydrate chains; sites not stated); experiment: flow cytometry competition; competitor 2 nM biotin-muDS6, streptavidin-DTAF (called apparent EC50 in paragraph 357)
T1 construct: whole, on cells; Flow cytometry used whole cells; dot blots, immunoprecipitation and western blots used cell lysates; also called CA6 antigen; >250 kDa band

[2] = molecular target: T1, Muc1 mucin bearing the CA6 …; experiment: cell-based or functional assay
[3] = molecular target: T1, Muc1 mucin bearing the CA6 …; experiment: flow cytometry, direct binding to KB cells; apparent Kd
Method: In the first set of experiments direct binding to a CA6-expressing cell line, KB, was measured.

Row | Binder | IC50 [1] [nM] | in vitro cytotoxicity (MTT), WISH cells, IC50 [2] [nM] | Kd [3] [nM]
1 | murine DS6 anti-CA6 monoclonal antibody (antibody, V domains shown, Murine monoclonal IgG purified from the hybridoma (ATCC PTA-4449); also called muDS6; DS6 antibody) VH: QAYLQQSGAELVRSGASVKMSCKASGYTFTSYNMHWVKQTPGQGLEWIGYIYPGNGATNYNQKFKGKATLTADPSSSTAYMQISSLTSEDSAVYFCARGDSVPFAYWGQGTLVTVSA VL: QIVLTQSPAIMSASPGEKVTITCSAHSSVSFMHWFQQKPGTSPKLWIYSTSSLASGVPARFGGSGSGTSYSLTISRMEAEDAATYYCQQRSSFPLTFGAGTKLELKR | 1.9 |  | 
2 | chimeric DS6 antibody (antibody, V domains shown, also called chDS6) VH: QAYLQQSGAELVRSGASVKMSCKASGYTFTSYNMHWVKQTPGQGLEWIGYIYPGNGATNYNQKFKGKATLTADPSSSTAYMQISSLTSEDSAVYFCARGDSVPFAYWGQGTLVTVSA VL: QIVLTQSPAIMSASPGEKVTITCSAHSSVSFMHWFQQKPGTSPKLWIYSTSSLASGVPARFGGSGSGTSYSLTISRMEAEDAATYYCQQRSSFPLTFGAGTKLELKR | 1.7 |  | 
3 | huDS6v1.01-SPDB-DM4 conjugate (antibody, human IgG1, V domains shown, DM4 maytansinoid via SPDB disulfide linker, 3.2 DM4 per antibody; sites not stated) VH: QAQLVQSGAEVVKPGASVKMSCKASGYTFTSYNMHWVKQTPGQGLEWIGYIYPGNGATNYNQKFQGKATLTADTSSSTAYMQISSLTSEDSAVYFCARGDSVPFAYWGQGTLVTVSA VL: EIVLTQSPATMSASPGERVTITCSAHSSVSFMHWFQQKPGTSPKLWIYSTSSLASGVPARFGGSGSGTSYSLTISSMEAEDAATYYCQQRSSFPLTFGAGTKLELKR |  | 0.44 | 
4 | humanized DS6 antibody version 1.21 (antibody, V domains shown, also called huDS6v1.21; huDS6 v1.21) VH: QAQLVQSGAEVVKPGASVKMSCKASGYTFTSYNMHWVKQTPGQGLEWIGYIYPGNGATNYNQKFQGKATLTADPSSSTAYMQISSLTSEDSAVYFCARGDSVPFAYWGQGTLVTVSA VL: EIVLTQSPATMSASPGERVTITCSAHSSVSFMHWFQQKPGTSPKLWIYSTSSLASGVPARFGGSGSGTSYSLTISSMEAEDAATYYCQQRSSFPLTFGAGTKLELKR | 1.9 |  | 0.85
5 | humanized DS6 antibody version 1.01 (antibody, V domains shown, also called huDS6v1.01; huDS6 v1.01) VH: QAQLVQSGAEVVKPGASVKMSCKASGYTFTSYNMHWVKQTPGQGLEWIGYIYPGNGATNYNQKFQGKATLTADTSSSTAYMQISSLTSEDSAVYFCARGDSVPFAYWGQGTLVTVSA VL: EIVLTQSPATMSASPGERVTITCSAHSSVSFMHWFQQKPGTSPKLWIYSTSSLASGVPARFGGSGSGTSYSLTISSMEAEDAATYYCQQRSSFPLTFGAGTKLELKR | 3 |  | 0.82
